Measured values from US20200318071A1.

Target: human CD33 (full length, CD33M) (human) (UniProt P20138)
Assay: cell-based or functional assay

Chain of UniProt P20138 (P20138 18-364 limits assumed): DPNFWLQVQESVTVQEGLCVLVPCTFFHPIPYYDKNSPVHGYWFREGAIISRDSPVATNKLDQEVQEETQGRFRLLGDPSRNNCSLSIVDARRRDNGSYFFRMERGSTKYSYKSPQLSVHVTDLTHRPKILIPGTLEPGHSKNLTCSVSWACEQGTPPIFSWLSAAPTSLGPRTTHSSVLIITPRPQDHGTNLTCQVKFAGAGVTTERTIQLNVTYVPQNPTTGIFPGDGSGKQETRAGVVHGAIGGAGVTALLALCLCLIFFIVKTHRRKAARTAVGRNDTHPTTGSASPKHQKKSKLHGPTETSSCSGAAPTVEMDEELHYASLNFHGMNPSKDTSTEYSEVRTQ

gemtuzumab ozogamicin (antibody)
IC50 of GO cytotoxicity, HL-60 cells (viable cell number, Celltiter Glo, 72 hours): 35.5 ng/mL
IC50 of GO cytotoxicity, THP-1 cells (viable cell number, Celltiter Glo, 72 hours): 16.3 ng/mL
